Experimental data taken from patent US20220048947A1 (NANOTAG BIOTECHNOLOGIES, published 2022).
Changes are numbered by the printed parent chain. Where no end group is shown, it is not given here.

T1: YfgM (non-tagged) (E. coli, UniProt P76576 1-206)
T1 construct: Control without tag; also called wild-type YfgM; untagged YfgM
T1 sequence: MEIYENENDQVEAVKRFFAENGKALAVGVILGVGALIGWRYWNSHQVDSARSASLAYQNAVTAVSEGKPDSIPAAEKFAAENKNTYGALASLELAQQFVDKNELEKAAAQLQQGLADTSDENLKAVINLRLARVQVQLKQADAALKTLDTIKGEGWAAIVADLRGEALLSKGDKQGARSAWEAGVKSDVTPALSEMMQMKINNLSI

T2: PpiD (E. coli, UniProt P0ADY1 1-623)
T2 sequence (looked up): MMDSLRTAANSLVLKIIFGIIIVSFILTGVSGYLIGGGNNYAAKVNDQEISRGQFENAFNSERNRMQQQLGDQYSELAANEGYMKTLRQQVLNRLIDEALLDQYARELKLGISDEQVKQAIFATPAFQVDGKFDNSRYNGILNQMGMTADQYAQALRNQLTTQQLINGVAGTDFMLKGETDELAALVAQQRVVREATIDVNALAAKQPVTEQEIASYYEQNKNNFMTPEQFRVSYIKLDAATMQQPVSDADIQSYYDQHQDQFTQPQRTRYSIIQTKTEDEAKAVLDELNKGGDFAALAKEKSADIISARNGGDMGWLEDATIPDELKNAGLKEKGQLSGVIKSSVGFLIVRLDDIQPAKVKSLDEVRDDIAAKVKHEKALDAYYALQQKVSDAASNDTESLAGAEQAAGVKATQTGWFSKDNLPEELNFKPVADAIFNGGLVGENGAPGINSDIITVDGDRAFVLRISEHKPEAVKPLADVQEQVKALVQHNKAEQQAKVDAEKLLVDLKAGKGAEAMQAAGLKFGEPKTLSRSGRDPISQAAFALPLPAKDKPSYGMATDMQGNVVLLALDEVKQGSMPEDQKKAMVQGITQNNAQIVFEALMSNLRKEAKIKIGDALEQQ

T3: ALFA^ST peptide (Ac-PSRLEEELRRRLTEP-Amide)
T3 construct: also called free ALFA^ST peptide; ALFA peptide
T3 peptide: Ac-PSRLEEELRRRLTEP-NH2

B1: MsSRLEEELRRRLTEp (SEQ ID NO: 30) (peptide)
peptide: MSSRLEEELRRRLTEP
modifications: not fully specified (residues 2, 16); printed as MsSRLEEELRRRLTEp
notes: Tag variant tested inside a fusion protein, position N
B2: spSRLEEELRRRLTEp (SEQ ID NO: 15) (peptide)
peptide: SPSRLEEELRRRLTEP
notes: Tag variant tested inside a fusion protein, position M
B3: spSGLEEELRRRLTEp (SEQ ID NO: 17) (peptide)
peptide: SPSGLEEELRRRLTEP
notes: as for B2
B4: spSRLEEELRRRLTAp (SEQ ID NO: 11) (peptide)
peptide: SPSRLEEELRRRLTAP
notes: as for B2
B5: spSGLEQELRRRLDAp (SEQ ID NO: 23) (peptide)
peptide: SPSGLEQELRRRLDAP
notes: as for B2
B6: spSGLEQELRRRLEAp (SEQ ID NO: 24) (peptide)
peptide: SPSGLEQELRRRLEAP
notes: as for B2
B7: spSGLEQELRRRLTEp (SEQ ID NO: 25) (peptide)
peptide: SPSGLEQELRRRLTEP
notes: as for B2
B8: spSRLEEELRRRLTDp (SEQ ID NO: 14) (peptide)
peptide: SPSRLEEELRRRLTDP
notes: as for B2
B9: gpSRLEEELRRRLTAp. (SEQ ID NO: 26) (peptide)
peptide: GPSRLEEELRRRLTAP
notes: Tag variant tested inside a fusion protein, position C
B10: spSRLEEELRRRLDAp (SEQ ID NO: 12) (peptide)
peptide: SPSRLEEELRRRLDAP
modifications: not fully specified (residues 1, 2, 16); printed as spSRLEEELRRRLDAp
notes: as for B2
B11: spSGLEQELRRRLTAp (SEQ ID NO: 22) (peptide)
peptide: SPSGLEQELRRRLTAP
notes: as for B2
B12: gpSRLEEELRRRLTEp. (SEQ ID NO: 27) (peptide)
peptide: GPSRLEEELRRRLTEP
notes: as for B9
B13: spSRLEEELRRRLEAp (SEQ ID NO: 13) (peptide)
peptide: SPSRLEEELRRRLEAP
notes: as for B2
B14: gPSRLEEELRRRLTAa. (SEQ ID NO: 20) (peptide)
peptide: GPSRLEEELRRRLTAA
notes: as for B9
B15: pSRLEEELRRRLTE (SEQ ID NO: 7) (peptide)
peptide: PSRLEEELRRRLTE
notes: Tag tested inside a fusion protein, position C; also called ALFA^ST tag (C-terminal)
B16: pgSRLEEELRRRLTAp (SEQ ID NO: 09) (peptide)
peptide: PGSRLEEELRRRLTAP
notes: as for B2
B17: psTRLEEELRRRLTAp (SEQ ID NO: 10) (peptide)
peptide: PSTRLEEELRRRLTAP
notes: as for B2
B18: gPSRLEEELRRRLTA. (SEQ ID NO: 19) (peptide)
peptide: GPSRLEEELRRRLTA
notes: as for B9
B19: gpSRLEEELRRRLTE. (SEQ ID NO: 28) (peptide)
peptide: GPSRLEEELRRRLTE
notes: as for B9
B20: grSRLEEELRRRLTA. (SEQ ID NO: 08) (peptide)
peptide: GRSRLEEELRRRLTA
notes: as for B9
B21: spSRLEEELRRRLTAdp (SEQ ID NO: 16) (peptide)
peptide: SPSRLEEELRRRLTADP
notes: as for B2
B22: MSRLEEELRRRLTEp (SEQ ID NO: 29) (peptide)
peptide: MSRLEEELRRRLTEP
notes: as for B1
B23: pSRLEEELRRRLTEp (SEQ ID NO: 6) (peptide)
peptide: PSRLEEELRRRLTEP
modifications: not fully specified (residues 1, 15); printed as pSRLEEELRRRLTEp
notes: Tag tested inside a fusion protein, position M; also called ALFA^ST tag (internal)
B24: gPSRLEEELRRRLTAas. (SEQ ID NO: 21) (peptide)
peptide: GPSRLEEELRRRLTAAS
notes: as for B9
B25: NbALFA^ST (NbALFA clone 1G5) (VHH)
VHH: EVQLQESGGGLVQPGGSLRLSCTASGVTISALNAMAMGWYRQAPGERRVMVAAVSERGNAMYRESVQGRFTVTRDFTNKMVSLQMDNLKPEDTAVYYCHVLEDRVDSFHDYWGQGTQVTVSS
notes: Alpaca single-domain antibody; also called ALFA Selector^ST (immobilised on agarose resin); FluoTag-X2 anti-ALFA (coupled to AbberiorStar635P or IRDye800CW)
B26: NbALFA^ST-mScarlet-I (VHH)
VHH: B25 VHH
notes: Intrabody fusion expressed in COS-7 cells; also called pNT1004
B27: NbALFA^PE (VHH)
VHH: B25 VHH with R47E, E56S
notes: Weaker mutant of NbALFA^ST made by rational mutagenesis from the crystal structure; used on agarose (ALFA Selector^PE) or in solution (MST); also called NbALFA^PE mutant; ALFA Selector^PE (immobilised on agarose resin)
B28: gPSRLEEELRRRLT. (SEQ ID NO: 18) (peptide)
peptide: GPSRLEEELRRRLT
notes: as for B9
B29: MSGLEQELRRRLTPs (SEQ ID NO: 110) (peptide)
peptide: MSGLEQELRRRLTPS
modifications: not fully specified (residue 15); printed as MSGLEQELRRRLTPs
notes: as for B1

Experiments:
[1] = target: B25; test: peptide elution from NbALFA^ST resin; tag position N
[2] = target: B25; test: peptide elution from NbALFA^ST resin; tag position M
[3] = target: B25; test: peptide elution from NbALFA^ST resin; tag position C
ALFA^PE-FLAG-Vimentin = target: T4, ALFA^PE-FLAG-Vimentin (Mus musculus (Mouse), UniProt P20152 2-466); test: direct immunofluorescence on PFA-fixed COS-7 cells
T4 construct: Expressed in COS-7 cells; also called ALFA^PE-Vimentin; ALFA^PE-tagged Vimentin
T4 sequence (P20152 other isoform, or with tags, fused parts or gaps): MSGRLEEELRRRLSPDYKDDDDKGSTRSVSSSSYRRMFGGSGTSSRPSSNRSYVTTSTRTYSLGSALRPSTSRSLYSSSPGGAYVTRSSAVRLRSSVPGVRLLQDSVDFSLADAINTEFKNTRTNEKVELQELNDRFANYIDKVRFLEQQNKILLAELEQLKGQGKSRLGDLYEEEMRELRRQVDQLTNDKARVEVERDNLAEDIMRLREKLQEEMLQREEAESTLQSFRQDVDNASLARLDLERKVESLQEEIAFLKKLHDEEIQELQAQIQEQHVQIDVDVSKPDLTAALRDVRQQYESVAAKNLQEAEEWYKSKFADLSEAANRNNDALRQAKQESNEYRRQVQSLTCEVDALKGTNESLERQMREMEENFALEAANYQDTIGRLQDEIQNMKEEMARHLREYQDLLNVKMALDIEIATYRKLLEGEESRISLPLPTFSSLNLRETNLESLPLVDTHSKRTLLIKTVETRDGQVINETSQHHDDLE

ALFA^ST-FLAG-Vimentin [4] = target: T5, ALFA^ST-FLAG-Vimentin (Mus musculus (Mouse), UniProt P20152 2-466); test: direct immunofluorescence on PFA-fixed COS-7 cells
T5 construct: Expressed in COS-7 cells; also called ALFA^ST-Vimentin; ALFA^ST-tagged Vimentin
T5 sequence (P20152 other isoform, or with tags, fused parts or gaps): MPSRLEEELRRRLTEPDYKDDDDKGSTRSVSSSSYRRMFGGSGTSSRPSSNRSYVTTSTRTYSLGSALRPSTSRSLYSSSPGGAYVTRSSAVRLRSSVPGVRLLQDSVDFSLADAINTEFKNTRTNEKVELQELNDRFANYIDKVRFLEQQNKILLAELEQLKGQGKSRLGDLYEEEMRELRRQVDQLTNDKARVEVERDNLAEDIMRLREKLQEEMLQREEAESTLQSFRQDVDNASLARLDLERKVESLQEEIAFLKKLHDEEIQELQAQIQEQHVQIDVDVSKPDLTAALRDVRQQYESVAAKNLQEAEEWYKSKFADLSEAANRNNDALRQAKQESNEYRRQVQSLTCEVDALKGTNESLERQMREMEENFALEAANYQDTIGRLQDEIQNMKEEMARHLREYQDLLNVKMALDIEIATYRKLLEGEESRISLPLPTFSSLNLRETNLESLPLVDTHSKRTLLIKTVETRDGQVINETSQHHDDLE

YfgM (non-tagged) [5] = target: T1, YfgM (non-tagged); test: pull-down on ALFA Selector^ST from DDM lysate, Western blot
PpiD [6] = target: T2, PpiD; test: as above
[7] = target: T3, ALFA^ST peptide …; test: X-ray structure of the complex
[8] = target: maltose-binding protein (MBP) fused to multiple epitope tags (FLAG, HA, myc and ALFA^ST); test: dot blot, 2.7 nM nanobody or primary antibody
ALFA^ST-FLAG-Vimentin [9] = target: T5, ALFA^ST-FLAG-Vimentin; test: intrabody co-expression in COS-7 cells, fluorescence microscopy
YfgM (non-tagged) [10] = target: T1, YfgM (non-tagged); test: pull-down on ALFA Selector^PE from DDM lysate, Western blot
PpiD [11] = target: T2, PpiD; test: as above

B1
t1/2 [1]: > 1.67 h

B2
t1/2 [2]: > 1.67 h

B3
t1/2 [2]: > 1.67 h

B4
t1/2 [2]: > 1.67 h

B5
t1/2 [2]: > 1.67 h

B6
t1/2 [2]: > 1.67 h

B7
t1/2 [2]: > 1.67 h

B8
t1/2 [2]: > 1.67 h

B9
t1/2 [3]: > 1.67 h

B10
t1/2 [2]: > 1.67 h

B11
t1/2 [2]: > 1.67 h

B12
t1/2 [3]: > 1.67 h

B13
t1/2 [2]: > 1.67 h

B14
t1/2 [3]: > 1.67 h

B15
t1/2 [3]: > 1.67 h

B16
t1/2 [2]: > 1.67 h

B17
t1/2 [2]: > 1.67 h

B18
t1/2 [3]: > 1.67 h

B19
t1/2 [3]: > 1.67 h

B20
t1/2 [3]: > 1.67 h

B21
t1/2 [2]: > 1.67 h

B22
t1/2 [1]: > 1.67 h

B23
t1/2 [2]: > 1.67 h

B24
t1/2 [3]: > 1.67 h

B25
binding result (ALFA^PE-FLAG-Vimentin): binds | binding result (ALFA^ST-FLAG-Vimentin [4]): binds | binding result (YfgM (non-tagged) [5]): no binding | binding result (PpiD [6]): no binding | binding result [7]: binds | fold lower detection limit against all other epitope tags [8]: ~10 fold

B26
binding result (ALFA^ST-FLAG-Vimentin [9]): binds

B27
binding result (YfgM (non-tagged) [10]): no binding | binding result (PpiD [11]): no binding

B28
t1/2 [3]: > 1.67 h

B29
t1/2 [1]: < 0.0333 h
